Measured values taken from PMC8854693.

Target: intact GluN1b-GluN2B NMDA receptor (rat) (UniProt Q00960)
Sequence (Q00960 whole entry, looked up): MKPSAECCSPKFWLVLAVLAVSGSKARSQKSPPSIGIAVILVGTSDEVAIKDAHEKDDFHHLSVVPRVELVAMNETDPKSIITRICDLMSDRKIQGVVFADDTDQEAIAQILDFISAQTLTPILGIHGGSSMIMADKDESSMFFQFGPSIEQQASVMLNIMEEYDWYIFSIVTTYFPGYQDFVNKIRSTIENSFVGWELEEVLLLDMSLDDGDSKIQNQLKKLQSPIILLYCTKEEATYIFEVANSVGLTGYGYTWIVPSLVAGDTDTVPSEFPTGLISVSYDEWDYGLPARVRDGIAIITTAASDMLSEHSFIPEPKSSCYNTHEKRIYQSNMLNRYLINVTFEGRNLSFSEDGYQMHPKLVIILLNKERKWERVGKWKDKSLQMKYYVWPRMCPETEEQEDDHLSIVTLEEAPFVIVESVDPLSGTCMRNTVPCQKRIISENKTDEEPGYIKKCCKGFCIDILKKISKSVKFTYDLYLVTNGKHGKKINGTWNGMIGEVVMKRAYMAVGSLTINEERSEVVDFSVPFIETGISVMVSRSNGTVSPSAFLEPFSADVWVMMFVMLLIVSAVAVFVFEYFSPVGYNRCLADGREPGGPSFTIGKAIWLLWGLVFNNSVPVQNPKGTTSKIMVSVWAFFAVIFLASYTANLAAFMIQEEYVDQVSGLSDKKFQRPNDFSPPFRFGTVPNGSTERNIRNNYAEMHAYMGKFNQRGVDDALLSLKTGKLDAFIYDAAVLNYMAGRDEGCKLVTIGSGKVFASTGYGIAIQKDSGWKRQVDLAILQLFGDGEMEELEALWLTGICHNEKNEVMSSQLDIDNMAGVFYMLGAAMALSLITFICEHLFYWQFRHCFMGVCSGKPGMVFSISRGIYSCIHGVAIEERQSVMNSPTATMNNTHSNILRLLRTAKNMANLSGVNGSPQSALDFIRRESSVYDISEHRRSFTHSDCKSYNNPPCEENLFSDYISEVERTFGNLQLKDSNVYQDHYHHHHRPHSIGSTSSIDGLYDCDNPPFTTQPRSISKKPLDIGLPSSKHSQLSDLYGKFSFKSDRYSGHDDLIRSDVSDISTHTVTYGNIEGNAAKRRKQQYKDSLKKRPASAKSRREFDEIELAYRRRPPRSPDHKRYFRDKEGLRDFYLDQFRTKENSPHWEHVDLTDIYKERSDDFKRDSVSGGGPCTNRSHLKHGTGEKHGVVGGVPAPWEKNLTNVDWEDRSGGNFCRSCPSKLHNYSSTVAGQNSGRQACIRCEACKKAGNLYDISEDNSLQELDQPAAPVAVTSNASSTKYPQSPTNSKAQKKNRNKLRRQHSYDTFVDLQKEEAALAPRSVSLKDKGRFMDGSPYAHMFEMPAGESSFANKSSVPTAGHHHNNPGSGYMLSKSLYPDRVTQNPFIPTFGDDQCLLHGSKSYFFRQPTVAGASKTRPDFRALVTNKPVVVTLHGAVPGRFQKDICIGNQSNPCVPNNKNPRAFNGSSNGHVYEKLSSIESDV

GluN1b-GluN2B NMDAR current, TEVC on Xenopus oocytes, Fv2 at 0.1 mg/ml (% of maximum current): 60
B1: Fv2, variable fragment (Fv) of IgG2 (protein)
VH: DVKLQESGGGLVQPGGSLKLSCAASGFTFSSYTMSWVRQTPEKRLEWVAYISNGGGGTYYPDTVKGRFTISRDNAKNTLYLQMNSLKEDTAMYYCARPSRGGSSYWYFDVWGAGTTVTVSS
VL: DIQMTQSPSSLSASLGGKVTITCKASQDINKYIAWYQHKPGKGPRLLIHYTSSLQPGIPSRFSGSGSGRDYSFSISNLEPEDIATYYCLQYDNLYTFGGGTKLEIK
